# Reference: patent US9176064B2, “Bisubstrate fluorescent probes for protein kinase CK2” (University of Tartu, priority 2012, dated 2015)
# Where a SMILES comes first, the peptide text is derived from it. [ ]: non-standard residue; d: D form. The star is where a group is joined. X1 = O=C(CCCCCCCn1cnc2c(Br)c(Br)c(Br)c(Br)c21)*
# Columns and labels:
# Test in all cases: Kinase panel residual activity
# Type in all cases: biochemical
# Conditions in all cases: compound at 1 micromolar
# NUAK1 = molecular target: T1, NUAK1 (Homo sapiens, UniProt O60285)
# T1 sequence (O60285 1-661): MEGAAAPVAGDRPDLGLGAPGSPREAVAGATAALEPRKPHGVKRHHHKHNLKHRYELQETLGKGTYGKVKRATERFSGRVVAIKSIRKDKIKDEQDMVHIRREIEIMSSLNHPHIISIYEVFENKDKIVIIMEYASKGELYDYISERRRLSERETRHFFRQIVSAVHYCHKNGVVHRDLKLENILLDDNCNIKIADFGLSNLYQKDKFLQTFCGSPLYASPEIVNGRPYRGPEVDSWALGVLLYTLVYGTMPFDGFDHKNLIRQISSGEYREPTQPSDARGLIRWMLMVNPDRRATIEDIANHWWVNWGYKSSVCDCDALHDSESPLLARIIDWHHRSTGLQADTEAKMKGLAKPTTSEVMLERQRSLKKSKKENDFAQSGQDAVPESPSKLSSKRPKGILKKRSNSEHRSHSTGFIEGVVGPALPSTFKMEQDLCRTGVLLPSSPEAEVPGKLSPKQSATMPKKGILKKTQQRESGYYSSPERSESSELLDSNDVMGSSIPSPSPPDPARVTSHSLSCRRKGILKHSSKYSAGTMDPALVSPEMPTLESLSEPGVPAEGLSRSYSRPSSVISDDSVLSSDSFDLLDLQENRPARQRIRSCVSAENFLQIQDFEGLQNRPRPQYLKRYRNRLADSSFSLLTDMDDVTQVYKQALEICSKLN
# BTK = BTK (Homo sapiens, UniProt Q06187)
# BTK, sequence (Q06187 whole entry, species assumed): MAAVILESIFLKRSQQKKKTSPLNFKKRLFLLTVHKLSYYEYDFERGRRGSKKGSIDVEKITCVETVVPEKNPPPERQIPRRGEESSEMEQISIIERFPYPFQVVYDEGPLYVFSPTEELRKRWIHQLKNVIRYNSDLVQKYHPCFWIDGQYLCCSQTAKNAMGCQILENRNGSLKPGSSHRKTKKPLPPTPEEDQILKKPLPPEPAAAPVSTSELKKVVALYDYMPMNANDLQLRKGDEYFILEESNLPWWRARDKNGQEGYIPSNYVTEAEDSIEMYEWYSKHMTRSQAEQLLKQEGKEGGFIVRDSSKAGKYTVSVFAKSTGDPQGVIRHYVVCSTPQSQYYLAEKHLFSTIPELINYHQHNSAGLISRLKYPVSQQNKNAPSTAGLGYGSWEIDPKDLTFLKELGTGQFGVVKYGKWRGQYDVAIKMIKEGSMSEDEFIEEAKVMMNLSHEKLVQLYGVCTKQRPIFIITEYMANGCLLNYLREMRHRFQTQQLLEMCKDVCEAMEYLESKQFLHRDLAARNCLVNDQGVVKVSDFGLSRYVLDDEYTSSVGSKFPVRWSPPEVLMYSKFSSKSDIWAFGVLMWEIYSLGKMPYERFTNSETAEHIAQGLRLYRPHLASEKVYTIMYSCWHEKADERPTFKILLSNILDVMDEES
# PDK1 = molecular target: T2, PDK1 (Homo sapiens, UniProt O15530)
# T2 sequence (O15530 1-556): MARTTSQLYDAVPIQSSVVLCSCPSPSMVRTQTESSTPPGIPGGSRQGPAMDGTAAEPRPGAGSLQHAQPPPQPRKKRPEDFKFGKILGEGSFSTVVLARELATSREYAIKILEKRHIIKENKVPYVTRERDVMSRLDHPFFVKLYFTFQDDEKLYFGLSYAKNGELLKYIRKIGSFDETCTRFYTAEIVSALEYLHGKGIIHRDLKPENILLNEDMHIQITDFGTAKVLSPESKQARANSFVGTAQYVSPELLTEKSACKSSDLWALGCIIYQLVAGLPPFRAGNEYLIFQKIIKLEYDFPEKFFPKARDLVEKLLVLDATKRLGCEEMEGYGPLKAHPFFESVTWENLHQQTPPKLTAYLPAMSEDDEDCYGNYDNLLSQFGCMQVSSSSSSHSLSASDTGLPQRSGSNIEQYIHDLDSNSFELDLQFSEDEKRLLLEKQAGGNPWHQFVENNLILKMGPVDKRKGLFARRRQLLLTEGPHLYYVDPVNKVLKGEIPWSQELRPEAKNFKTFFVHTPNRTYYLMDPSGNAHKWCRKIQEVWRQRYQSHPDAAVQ
# BRSK1 = molecular target: T3, BRSK1 (Homo sapiens, UniProt Q8TDC3)
# T3 sequence (Q8TDC3 1-778): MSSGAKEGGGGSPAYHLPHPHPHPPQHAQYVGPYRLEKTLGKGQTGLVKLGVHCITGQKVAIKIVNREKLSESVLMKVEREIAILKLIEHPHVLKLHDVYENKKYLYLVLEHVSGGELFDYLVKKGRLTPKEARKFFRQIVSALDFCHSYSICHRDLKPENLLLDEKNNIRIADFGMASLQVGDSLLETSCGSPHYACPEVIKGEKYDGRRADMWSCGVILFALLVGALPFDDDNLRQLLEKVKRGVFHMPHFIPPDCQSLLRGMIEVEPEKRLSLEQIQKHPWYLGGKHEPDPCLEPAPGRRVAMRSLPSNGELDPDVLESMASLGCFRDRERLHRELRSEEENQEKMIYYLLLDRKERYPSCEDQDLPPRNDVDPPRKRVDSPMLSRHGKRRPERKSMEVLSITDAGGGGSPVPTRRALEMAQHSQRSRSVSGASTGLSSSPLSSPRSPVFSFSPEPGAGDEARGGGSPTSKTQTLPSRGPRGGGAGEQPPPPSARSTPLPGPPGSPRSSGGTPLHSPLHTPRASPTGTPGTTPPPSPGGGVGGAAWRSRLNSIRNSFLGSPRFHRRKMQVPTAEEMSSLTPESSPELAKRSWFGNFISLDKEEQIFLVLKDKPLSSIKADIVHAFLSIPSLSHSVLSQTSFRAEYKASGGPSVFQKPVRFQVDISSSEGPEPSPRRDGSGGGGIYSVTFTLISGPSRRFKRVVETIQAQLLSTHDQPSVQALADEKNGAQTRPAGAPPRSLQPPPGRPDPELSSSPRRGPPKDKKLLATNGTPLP
# EPH-B4 = molecular target: T4, EPH-B4 (Homo sapiens, UniProt P54760)
# T4 sequence (P54760 16-987): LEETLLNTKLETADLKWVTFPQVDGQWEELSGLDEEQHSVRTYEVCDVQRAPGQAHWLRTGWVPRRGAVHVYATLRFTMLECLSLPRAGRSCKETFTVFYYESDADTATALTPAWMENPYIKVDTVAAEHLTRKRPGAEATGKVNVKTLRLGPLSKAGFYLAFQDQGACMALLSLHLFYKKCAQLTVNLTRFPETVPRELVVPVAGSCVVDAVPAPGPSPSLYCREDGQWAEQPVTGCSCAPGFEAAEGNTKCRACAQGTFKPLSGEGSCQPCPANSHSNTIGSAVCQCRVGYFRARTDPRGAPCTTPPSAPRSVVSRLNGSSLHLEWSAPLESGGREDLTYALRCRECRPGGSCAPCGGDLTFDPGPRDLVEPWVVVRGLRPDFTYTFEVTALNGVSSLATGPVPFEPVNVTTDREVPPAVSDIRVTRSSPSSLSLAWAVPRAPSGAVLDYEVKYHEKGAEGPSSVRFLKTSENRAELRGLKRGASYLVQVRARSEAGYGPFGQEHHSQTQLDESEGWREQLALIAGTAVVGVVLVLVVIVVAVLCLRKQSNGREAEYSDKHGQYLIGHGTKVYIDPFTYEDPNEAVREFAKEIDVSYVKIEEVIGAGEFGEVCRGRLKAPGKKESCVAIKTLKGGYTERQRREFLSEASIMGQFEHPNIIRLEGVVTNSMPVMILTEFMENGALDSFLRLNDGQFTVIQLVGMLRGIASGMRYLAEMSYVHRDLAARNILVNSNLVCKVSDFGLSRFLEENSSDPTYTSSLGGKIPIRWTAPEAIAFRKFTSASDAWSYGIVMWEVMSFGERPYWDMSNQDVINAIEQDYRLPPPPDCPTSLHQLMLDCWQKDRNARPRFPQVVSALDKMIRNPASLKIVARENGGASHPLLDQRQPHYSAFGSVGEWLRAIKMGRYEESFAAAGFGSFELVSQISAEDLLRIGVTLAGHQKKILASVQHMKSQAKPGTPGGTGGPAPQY
smiles,measurement,setting,value
NCCCC[C@H](NC(=O)[C@H](CC(=O)O)NC(=O)[C@H](CC(=O)O)NC(=O)[C@H](CC(=O)O)NC(=O)[C@H](CC(=O)O)NC(=O)[C@H](CC(=O)O)NC(=O)[C@@H](CC(=O)O)NC(=O)CCCCCCCn1cnc2c(Br)c(Br)c(Br)c(Br)c21)C(=O)O [TBBI-OcA-(D-Asp)-(L-Asp)5-(L-Lys)-OH] (X1-[dD]DDDDDK-OH),remaining activity at 1 µM,NUAK1,58%
same,remaining activity at 1 µM,BTK,80%
same,remaining activity at 1 µM,PDK1,86%
same,remaining activity at 1 µM,BRSK1,95%
same,remaining activity at 1 µM,EPH-B4,104%
